Patent publication US20250161440A1 (ABCENTRA, published 2025)

Molecular target: oxidized LDL (oxLDL) (UniProt P04114 28-4563, limits assumed, oxidized); the kind of oxidation used in the in vitro assay is not stated (the filing says in general that oxidized LDL may carry malondialdehyde groups on lysines and histidines, or be oxidized by …)
Experiment: cell-based or functional assay

Chain of oxidized LDL (oxLDL) (P04114 28-4563 limits assumed): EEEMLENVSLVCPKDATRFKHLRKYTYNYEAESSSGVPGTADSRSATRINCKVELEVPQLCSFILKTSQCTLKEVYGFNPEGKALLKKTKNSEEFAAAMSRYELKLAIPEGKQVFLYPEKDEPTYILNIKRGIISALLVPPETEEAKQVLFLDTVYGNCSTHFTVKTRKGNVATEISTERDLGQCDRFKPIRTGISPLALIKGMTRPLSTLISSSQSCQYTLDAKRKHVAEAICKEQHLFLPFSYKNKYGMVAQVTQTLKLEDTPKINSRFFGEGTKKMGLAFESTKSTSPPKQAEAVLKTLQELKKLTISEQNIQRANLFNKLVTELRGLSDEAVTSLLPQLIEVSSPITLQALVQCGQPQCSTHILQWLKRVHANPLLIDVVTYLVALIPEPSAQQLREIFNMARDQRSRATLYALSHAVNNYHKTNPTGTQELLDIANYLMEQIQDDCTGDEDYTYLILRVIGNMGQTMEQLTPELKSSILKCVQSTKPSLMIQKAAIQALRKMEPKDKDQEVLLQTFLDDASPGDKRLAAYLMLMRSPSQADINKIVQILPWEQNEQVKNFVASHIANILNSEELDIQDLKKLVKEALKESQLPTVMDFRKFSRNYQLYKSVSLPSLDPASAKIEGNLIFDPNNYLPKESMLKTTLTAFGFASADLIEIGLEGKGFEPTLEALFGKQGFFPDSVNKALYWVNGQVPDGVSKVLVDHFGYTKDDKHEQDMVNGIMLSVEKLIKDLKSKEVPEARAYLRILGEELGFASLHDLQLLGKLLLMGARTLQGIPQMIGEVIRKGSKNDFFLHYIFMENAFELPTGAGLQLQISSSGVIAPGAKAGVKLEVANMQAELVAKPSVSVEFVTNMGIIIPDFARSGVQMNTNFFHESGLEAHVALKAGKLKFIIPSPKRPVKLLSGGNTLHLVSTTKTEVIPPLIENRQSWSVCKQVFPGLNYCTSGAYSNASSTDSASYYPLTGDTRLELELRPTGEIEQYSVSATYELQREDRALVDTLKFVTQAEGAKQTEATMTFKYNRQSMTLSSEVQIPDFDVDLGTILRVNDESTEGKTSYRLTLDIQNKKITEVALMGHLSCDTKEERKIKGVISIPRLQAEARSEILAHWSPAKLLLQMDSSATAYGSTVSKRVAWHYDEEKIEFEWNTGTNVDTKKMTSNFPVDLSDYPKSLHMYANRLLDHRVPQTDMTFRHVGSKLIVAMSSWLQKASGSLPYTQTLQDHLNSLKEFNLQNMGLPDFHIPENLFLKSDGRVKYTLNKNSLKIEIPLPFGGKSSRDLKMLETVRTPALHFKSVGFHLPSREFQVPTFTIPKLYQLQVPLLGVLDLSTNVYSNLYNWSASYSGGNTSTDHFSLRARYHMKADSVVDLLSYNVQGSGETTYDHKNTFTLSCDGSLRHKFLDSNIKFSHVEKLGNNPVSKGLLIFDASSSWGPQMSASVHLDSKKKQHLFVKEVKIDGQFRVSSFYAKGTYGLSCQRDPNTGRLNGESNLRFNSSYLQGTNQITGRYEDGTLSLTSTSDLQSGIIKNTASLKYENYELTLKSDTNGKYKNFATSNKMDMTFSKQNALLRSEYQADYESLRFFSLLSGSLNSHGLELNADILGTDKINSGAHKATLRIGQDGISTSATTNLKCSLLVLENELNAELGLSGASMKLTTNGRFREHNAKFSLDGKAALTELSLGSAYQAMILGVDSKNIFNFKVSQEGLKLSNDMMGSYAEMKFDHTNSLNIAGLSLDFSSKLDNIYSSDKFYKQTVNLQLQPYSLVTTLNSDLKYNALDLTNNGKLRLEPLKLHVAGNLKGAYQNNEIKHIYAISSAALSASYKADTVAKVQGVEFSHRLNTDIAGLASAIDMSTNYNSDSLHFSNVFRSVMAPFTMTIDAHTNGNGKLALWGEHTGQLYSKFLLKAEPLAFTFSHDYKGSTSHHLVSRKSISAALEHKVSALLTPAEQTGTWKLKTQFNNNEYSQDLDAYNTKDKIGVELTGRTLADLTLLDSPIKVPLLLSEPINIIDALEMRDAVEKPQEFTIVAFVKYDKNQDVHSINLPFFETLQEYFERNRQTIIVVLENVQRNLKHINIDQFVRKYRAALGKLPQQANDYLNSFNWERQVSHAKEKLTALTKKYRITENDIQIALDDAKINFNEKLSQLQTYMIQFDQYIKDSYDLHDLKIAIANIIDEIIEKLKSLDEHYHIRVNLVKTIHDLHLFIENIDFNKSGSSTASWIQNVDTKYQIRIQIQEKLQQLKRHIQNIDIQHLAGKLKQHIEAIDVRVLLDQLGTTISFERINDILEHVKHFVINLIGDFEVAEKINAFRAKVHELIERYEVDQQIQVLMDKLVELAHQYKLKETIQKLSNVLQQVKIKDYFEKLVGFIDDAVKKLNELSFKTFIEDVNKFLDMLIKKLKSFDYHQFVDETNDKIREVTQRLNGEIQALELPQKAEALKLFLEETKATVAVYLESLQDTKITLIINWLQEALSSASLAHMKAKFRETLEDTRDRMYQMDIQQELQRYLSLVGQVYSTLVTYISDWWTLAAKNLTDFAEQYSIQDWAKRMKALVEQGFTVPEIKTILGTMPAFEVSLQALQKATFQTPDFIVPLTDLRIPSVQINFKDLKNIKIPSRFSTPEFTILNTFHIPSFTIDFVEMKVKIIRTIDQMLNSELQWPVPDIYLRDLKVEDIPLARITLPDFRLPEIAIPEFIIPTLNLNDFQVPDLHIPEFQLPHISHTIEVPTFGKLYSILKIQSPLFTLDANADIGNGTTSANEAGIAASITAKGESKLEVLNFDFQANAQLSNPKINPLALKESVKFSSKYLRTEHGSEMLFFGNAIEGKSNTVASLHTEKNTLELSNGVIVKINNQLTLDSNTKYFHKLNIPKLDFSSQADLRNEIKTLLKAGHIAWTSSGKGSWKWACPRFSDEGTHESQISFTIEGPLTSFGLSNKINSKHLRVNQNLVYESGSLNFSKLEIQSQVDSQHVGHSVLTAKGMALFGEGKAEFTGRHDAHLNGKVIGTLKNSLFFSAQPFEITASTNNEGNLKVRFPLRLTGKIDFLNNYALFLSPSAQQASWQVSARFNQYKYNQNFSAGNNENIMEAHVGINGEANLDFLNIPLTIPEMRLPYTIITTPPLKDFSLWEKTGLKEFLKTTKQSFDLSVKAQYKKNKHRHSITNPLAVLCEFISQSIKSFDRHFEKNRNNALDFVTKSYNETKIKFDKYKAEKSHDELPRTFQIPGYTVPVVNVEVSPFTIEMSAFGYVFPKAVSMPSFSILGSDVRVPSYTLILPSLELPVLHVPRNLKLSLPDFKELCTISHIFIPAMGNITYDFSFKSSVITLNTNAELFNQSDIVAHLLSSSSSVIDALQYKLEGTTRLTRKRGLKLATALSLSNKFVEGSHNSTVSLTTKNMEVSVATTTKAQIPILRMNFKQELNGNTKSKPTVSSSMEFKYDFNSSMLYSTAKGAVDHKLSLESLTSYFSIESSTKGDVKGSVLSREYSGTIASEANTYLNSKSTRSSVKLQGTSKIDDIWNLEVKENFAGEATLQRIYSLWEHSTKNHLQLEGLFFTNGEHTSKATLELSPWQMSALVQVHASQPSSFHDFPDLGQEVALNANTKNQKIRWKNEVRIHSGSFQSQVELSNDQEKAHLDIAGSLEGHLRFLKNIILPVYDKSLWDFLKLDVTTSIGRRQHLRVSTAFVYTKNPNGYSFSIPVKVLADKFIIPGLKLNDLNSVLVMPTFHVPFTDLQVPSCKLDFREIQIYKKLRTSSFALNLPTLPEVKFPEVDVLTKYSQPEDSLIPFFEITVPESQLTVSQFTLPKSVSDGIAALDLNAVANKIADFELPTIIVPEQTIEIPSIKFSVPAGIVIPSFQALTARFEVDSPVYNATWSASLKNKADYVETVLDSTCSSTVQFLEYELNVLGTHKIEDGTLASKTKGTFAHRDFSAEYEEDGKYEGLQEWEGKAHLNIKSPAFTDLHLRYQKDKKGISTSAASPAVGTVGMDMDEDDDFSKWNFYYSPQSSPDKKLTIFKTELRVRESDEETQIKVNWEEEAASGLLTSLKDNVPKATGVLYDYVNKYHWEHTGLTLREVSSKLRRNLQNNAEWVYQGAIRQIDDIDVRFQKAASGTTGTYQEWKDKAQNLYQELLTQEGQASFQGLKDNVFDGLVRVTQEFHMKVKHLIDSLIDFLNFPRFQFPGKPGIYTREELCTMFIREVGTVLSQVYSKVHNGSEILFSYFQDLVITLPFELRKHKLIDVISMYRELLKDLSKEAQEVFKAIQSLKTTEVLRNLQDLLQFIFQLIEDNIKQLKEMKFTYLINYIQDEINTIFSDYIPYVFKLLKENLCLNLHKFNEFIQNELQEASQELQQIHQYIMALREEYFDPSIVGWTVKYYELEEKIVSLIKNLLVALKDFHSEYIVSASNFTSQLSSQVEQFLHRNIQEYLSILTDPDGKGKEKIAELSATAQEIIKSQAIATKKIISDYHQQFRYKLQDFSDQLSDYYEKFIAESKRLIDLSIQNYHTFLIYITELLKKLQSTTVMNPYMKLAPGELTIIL

B1: orticumab (antibody, human IgG1, lambda, V domains shown)
VH: EVQLLESGGGLVQPGGSLRLSCAASGFTFSNAWMSWVRQAPGKGLEWVSSISVGGHRTYYADSVKGRSTISRDNSKNTLYLQMNSLRAEDTAVYYCARIRVGPSGGAFDYWGQGTLVTVSS
VL: QSVLTQPPSASGTPGQRVTISCSGSNTNIGKNYVSWYQQLPGTAPKLLIYANSNRPSGVPDRFSGSKSGTSASLAISGLRSEDEADYYCASWDASLNGWVFGGGTKLTVLG
In the case of B1, the “IC50 for MCP-1 inhibition” value is reported as about 10 nM.
